Reference: patent publication EP1126866B1 (The Regents of the University of California, dated 2007)

Target: rat cardiac SR Ca2+ ATPase (SERCA2a), endogenous in rat cardiomyocytes (rat, UniProt P11507 1-1043)
Test: cell-based or functional assay

Sequence of rat cardiac SR Ca2+ ATPase (SERCA2a), endogenous in rat cardiomyocytes (P11507 whole entry): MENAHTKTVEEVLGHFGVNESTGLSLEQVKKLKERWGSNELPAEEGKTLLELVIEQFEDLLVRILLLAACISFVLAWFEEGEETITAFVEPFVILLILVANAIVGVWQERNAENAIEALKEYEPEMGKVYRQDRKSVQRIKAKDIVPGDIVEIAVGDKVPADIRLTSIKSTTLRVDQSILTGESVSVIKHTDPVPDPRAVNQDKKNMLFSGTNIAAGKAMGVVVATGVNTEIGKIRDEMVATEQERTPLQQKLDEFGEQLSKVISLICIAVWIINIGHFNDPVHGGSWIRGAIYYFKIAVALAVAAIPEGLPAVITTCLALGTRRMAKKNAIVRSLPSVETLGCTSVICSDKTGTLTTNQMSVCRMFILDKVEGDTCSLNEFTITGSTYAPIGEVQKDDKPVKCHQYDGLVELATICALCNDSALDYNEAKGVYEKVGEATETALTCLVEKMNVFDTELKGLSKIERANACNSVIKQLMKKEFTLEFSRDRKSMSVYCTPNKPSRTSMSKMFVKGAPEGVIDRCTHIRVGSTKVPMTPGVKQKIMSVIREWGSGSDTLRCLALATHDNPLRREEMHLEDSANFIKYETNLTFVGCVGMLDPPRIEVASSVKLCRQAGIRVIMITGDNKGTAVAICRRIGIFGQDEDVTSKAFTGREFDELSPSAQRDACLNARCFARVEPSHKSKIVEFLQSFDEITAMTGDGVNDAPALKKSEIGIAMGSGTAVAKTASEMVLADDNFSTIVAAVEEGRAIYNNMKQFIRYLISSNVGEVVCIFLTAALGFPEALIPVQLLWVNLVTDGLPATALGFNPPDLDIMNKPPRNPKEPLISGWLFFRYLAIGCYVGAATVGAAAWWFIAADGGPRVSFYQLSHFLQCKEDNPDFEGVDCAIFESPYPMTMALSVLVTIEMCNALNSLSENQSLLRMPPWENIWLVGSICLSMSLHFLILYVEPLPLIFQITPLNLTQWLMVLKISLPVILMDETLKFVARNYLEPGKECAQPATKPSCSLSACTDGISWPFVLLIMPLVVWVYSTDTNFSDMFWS

B1: K3E/R14E double point mutation of PLB (other)
chain: MEEVQYLTRSAIREASTIEMPQQARQKLQNLFINFCLILICLLLICIIVMLL
- EC50 of Ca2+ concentration at which the SR Ca2+ uptake activity is half-maximal (neonatal rat myocytes): 110 nM
- lowering of the EC50 of Ca2+ for SR Ca2+ uptake (adult rat myocytes): 36%
